Data as given in the supplement of paper PMC9732359.
± gives the uncertainty stated by the source.

Assay: protein stability index of a GFP-peptide fusion (yeast GPS) (PSI 1-4); higher = more stable; sorted into four equal gates, so the index is relative within each strain
Procedure, shortened: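 Yeast carrying a pooled library were grown to mid-log phase in leucine-free medium. Each library plasmid expresses Cherry and has a tiled 17-residue yeast protein peptide fused downstream of GFP. Cells were sorted into four equal gates by GFP/Cherry ratio, and plasmids from each gate were PCR-amplified, Illumina-sequenced and assigned to strains by barcode. Summing, across gates, the read frequency times the gate number gave each peptide's protein stability index.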

Sequence	protein stability index (doa10∆)	protein stability index (pdr5∆)	protein stability index (san1∆)	protein stability index (ubr1∆)
PAFSFGTKSNEKKDSGS [YJL041W/NSP1]	3.17 ± 0.075	3.46 ± 0.075	3.44 ± 0.044	3.25 ± 0.065
PAGKQVEISLVNGAKNL [FAS1]	2.63 ± 0.27	3.23 ± 0.23	–	2.31 ± 0.19
PAGMNETPKSNNSLSYH [ITC1]	2.08 ± 0.14	3.22 ± 0.12	2.56 ± 0.14	3 ± 0.092
PAINYTKLKNAVQNESV [QCR2]	1.9 ± 0.064	1.79 ± 0.059	2.2 ± 0.092	1.54 ± 0.048
PAPSIPSTGFKFSLPFE [YLR335W/NUP2]	2.53 ± 0.1	2.94 ± 0.072	2.92 ± 0.088	3.05 ± 0.086
PAPSKPVIDYELKEITS [BRR2]	3.15 ± 0.079	3.2 ± 0.081	2.97 ± 0.068	3.1 ± 0.07
PARSSSLRSNVVVAETS [YAR002W/NUP60]	2.2 ± 0.04	2.62 ± 0.04	2.19 ± 0.058	2.58 ± 0.035
PAWFNNPRKRAIPNSII [YMR153W/NUP53]	2.62 ± 0.084	2.94 ± 0.083	3.21 ± 0.079	3.25 ± 0.084
PCNNRGKHSIGLIWYLL [RPS0A]	2.56 ± 0.058	2.37 ± 0.054	2.49 ± 0.058	2.37 ± 0.044
PDMMVDSFTMPNISHSN [SNF2]	3.28 ± 0.11	2.84 ± 0.098	2.72 ± 0.087	3.18 ± 0.093
PDSCNMQEKAAHIAKNL [YCS4]	2.15 ± 0.15	1.55 ± 0.2	–	1.47 ± 0.093
PDTAIDSQMDEASGTPD [GRR1]	2.97 ± 0.062	3.06 ± 0.071	2.89 ± 0.064	3 ± 0.055
PDTKISSAAILGLGIAF [RPN1]	2.28 ± 0.043	2.3 ± 0.058	2.49 ± 0.087	2.06 ± 0.051
PELLDSLAILGMNLLSN [SWI1]	2.1 ± 0.061	2.21 ± 0.073	2.05 ± 0.079	1.92 ± 0.066
PENLQVTSEKYPFDKLE [BRR2]	2.86 ± 0.085	3.07 ± 0.093	2.93 ± 0.064	3.19 ± 0.035
PEVVELCQKSPVMADLN [FAS2]	2.63 ± 0.074	2.69 ± 0.078	2.48 ± 0.11	2.73 ± 0.085
PFDKKSNSALFRAVGEG [FAS1]	2.92 ± 0.074	2.92 ± 0.082	2.85 ± 0.052	2.91 ± 0.063
PFDMGGYFIINGSEKVL [RPB2]	2.83 ± 0.14	2.28 ± 0.14	2.56 ± 0.27	2.33 ± 0.16
PFMSYSPQLTAIIGLKS [SNF12]	1.67 ± 0.055	2.16 ± 0.062	2.3 ± 0.078	1.98 ± 0.053
PFNFTVTLFQMAILLLY [CDC53]	1.65 ± 0.045	1.59 ± 0.045	1.41 ± 0.11	1.63 ± 0.039
PFPQYPAGMNETPKSNN [ITC1]	2.7 ± 0.1	2.8 ± 0.14	2.75 ± 0.087	3.01 ± 0.089
PGGASGLGVLTHRNKDG [FAS1]	3.35 ± 0.067	2.74 ± 0.081	3.24 ± 0.076	3.44 ± 0.069

Sequence	protein stability index (doa10∆)	protein stability index (pdr5∆)	protein stability index (san1∆)	protein stability index (ubr1∆)
PGGYFIVNGTEKVILVQ [RET1]	1.63 ± 0.12	1.67 ± 0.1	1.28 ± 0.13	2.48 ± 0.13
PGIISITSLQDSSSQCI [YMR129W/POM152]	2.86 ± 0.076	3.04 ± 0.074	3 ± 0.066	3.14 ± 0.085
PGLEFLDDTTIPVGLMA [MCD1]	1.99 ± 0.057	2.71 ± 0.059	3.03 ± 0.041	2.52 ± 0.055
PGRIDRKILFENPDLST [RPT2]	–	3.52 ± 0.28	3.35 ± 0.14	3.37 ± 0.056
PGTGKTLLARAVAHHTD [RPT6]	1.78 ± 0.05	2.76 ± 0.06	1.53 ± 0.11	1.49 ± 0.057
PGVNREINSEMCHIVRK [GRR1]	3.01 ± 0.096	3.05 ± 0.082	3.35 ± 0.059	3.12 ± 0.052
PGWDFETEEIDPELLRS [RPL5]	3.34 ± 0.13	3.19 ± 0.081	3.11 ± 0.057	2.77 ± 0.17
PIEVDEELLQLFLNNFV [IRR1]	2.93 ± 0.063	2.86 ± 0.071	2.97 ± 0.054	3.18 ± 0.058
PIKEAKIKHGSVTEIPL [YMR129W/POM152]	2.9 ± 0.046	3 ± 0.046	2.6 ± 0.06	2.99 ± 0.05
PIMLRSKNCYLSEATES [RPB2]	1.23 ± 0.075	1.46 ± 0.11	1.1 ± 0.15	1.14 ± 0.061
PINGNEAESQWYIEKVI [CSI1]	2.47 ± 0.081	2.88 ± 0.078	3.09 ± 0.1	2.93 ± 0.18
PINLHPSKLVITKLHLD [RPL26A]	1.74 ± 0.058	2.2 ± 0.045	1.9 ± 0.062	1.85 ± 0.042
PIQSKVFHAAFEGDSNM [BRR2]	2.91 ± 0.055	3.02 ± 0.051	2.92 ± 0.063	2.9 ± 0.032
PITASMAAALPNPTPSM [PGD1]	2.47 ± 0.083	2.54 ± 0.066	2.55 ± 0.073	2.51 ± 0.067
PITNKERSLAVKYINFG [RPC31]	3.02 ± 0.14	3.11 ± 0.16	2.65 ± 0.084	2.48 ± 0.18
PIVEDRRVKQLDDITDS [SIR4]	–	1.49 ± 0.19	1.31 ± 0.21	1.64 ± 0.12
PIVLLNTLRKCYPQFAE [UBP6]	1.25 ± 0.11	1.26 ± 0.073	1.14 ± 0.16	1.19 ± 0.12
PIYYQKLKHMVLDKMHA [RET1]	1.58 ± 0.076	2.03 ± 0.088	1.62 ± 0.094	1.77 ± 0.063
PKATSSAGAVFKSSVEM [YOR098C/NUP1]	2.89 ± 0.12	1.86 ± 0.11	2.69 ± 0.1	2.45 ± 0.047
PKDSSSTFREWKNLVLK [YJR042W/NUP85]	3.29 ± 0.11	2.76 ± 0.12	3 ± 0.065	3.16 ± 0.088
PKEEEPILAPSVKDYRP [RPS3]	2.8 ± 0.059	2.86 ± 0.079	3.04 ± 0.052	2.65 ± 0.054
